Laboratory results as given in IntAct's records for PubMed 22699936.

B1: Centrosomal P4.1-associated protein (Homo sapiens), Q9HC77 (parent)
chain: MFLMPTSSELNSGQNFLTQWMTNPSRAGVILNRGFPILEADKEKRAAVDISTSFPIKGTHFSDSFSFINEEDSLLEEQKLESNNPYKPQSDKSETHTAFPCIKKGPQVAACHSAPGHQEENKNDFIPDLASEFKEGAYKDPLFKKLEQLKEVQQKKQEQLKRQQLEQLQRLMEEQEKLLTMVSGQCTLPGLSLLPDDQSQKHRSPGNTTTGERATCCFPSYVYPDPTQEETYPSNILSHEQSNFCRTAHGDFVLTSKRASPNLFSEAQYQEAPVEKNNLKEENRNHPTGESILCWEKVTEQIQEANDKNLQKHDDSSEVANIEERPIKAAIGERKQTFEDYLEEQIQLEEQELKQKQLKEAEGPLPIKAKPKQPFLKRGEGLARFTNAKSKFQKGKESKLVTNQSTSEDQPLFKMDRQQLQRKTALKNKELCADNPILKKDSKARTKSGSVTLSQKPKMLKCSNRKSLSPSGLKIQTGKKCDGQFRDQIKFENKVTSNNKENVTECPKPCDTGCTGWNKTQGKDRLPLSTGPASRLAAKSPIRETMKESESSLDVSLQKKLETWEREKEKENLELDEFLFLEQAADEISFSSNSSFVLKILERDQQICKGHRMSSTPVKAVPQKTNPADPISHCNRSEDLDHTAREKESECEVAPKQLHSLSSADELREQPCKIRKAVQKSTSENQTEWNARDDEGVPNSDSSTDSEEQLDVTIKPSTEDRERGISSREDSPQVCDDKGPFKDTRTQEDKRRDVDLDLSDKDYSSDESIMESIKHKVSEPSRSSSLSLSKMDFDDERTWTDLEENLCNHDVVLGNESTYGTPQTCYPNNEIGILDKTIKRKIAPVKRGEDLSKSRRSRSPPTSELMMKFFPSLKPKPKSDSHLGNELKLNISQDQPPGDNARSQVLREKIIELETEIEKFKAENASLAKLRIERESALEKLRKEIADFEQQKAKELARIEEFKKEEMRKLQKERKVFEKYTTAARTFPDKKEREEIQTLKQQIADLREDLKRKETKWSSTHSRLRSQIQMLVRENTDLREEIKVMERFRLDAWKRAEAIESSLEVEKKDKLANTSVRFQNSQISSGTQVEKYKKNYLPMQGNPPRRSKSAPPRDLGNLDKGQAASPREPLEPLNFPDPEYKEEEEDQDIQGEISHPDGKVEKVYKNGCRVILFPNGTRKEVSADGKTITVTFFNGDVKQVMPDQRVIYYYAAAQTTHTTYPEGLEVLHFSSGQIEKHYPDGRKEITFPDQTVKNLFPDGQEESIFPDGTIVRVQRDGNKLIEFNNGQRELHTAQFKRREYPDGTVKTVYANGHQETKYRSGRIRVKDKEGNVLMDTEL

Variants of: B1
Conditions: with tnks1_human TNKS

Row | effect of a mutation on the interaction | Variant
1 | disrupting interaction | D1302A
2 | disrupting interaction | G1303A
